The record followed here is paper PMC8748919, “Dynamics and mechanism of dimer dissociation of photoreceptor UVR8” (Nature Communications, 2022).

The chains are these.
B1: UVR8 W92 single-Trp mutant (receptor, Arabidopsis thaliana, UniProt Q9FN03 1-440, looked up)
chain: MAEDMAADEVTAPPRKVLIISAGASHSVALLSGDIVCSWGRGEDGQLGHGDAEDRPSPTQLSALDGHQIVSVTCGADHTVAYSQSGMEVYSFGWGDFGRLGHGNSSDLFTPLPIKALHGIRIKQIACGDSHCLAVTMEGEVQSWGRNQNGQLGLGDTEDSLVPQKIQAFEGIRIKMVAAGAEHTAAVTEDGDLYGWGWGRYGNLGLGDRTDRLVPERVTSTGGEKMSMVACGWRHTISVSYSGALYTYGWSKYGQLGHGDLEDHLIPHKLEALSNSFISQISGGWRHTMALTSDGKLYGWGWNKFGQVGVGNNLDQCSPVQVRFPDDQKVVQVSCGWRHTLAVTERNNVFAWGRGTNGQLGIGESVDRNFPKIIEALSVDGASGQHIESSNIDPSSGKSWVSPAERYAVVPDETGLTDGSSKGNGGDISVPQTDVKRVRI
notes: UVR8, Arabidopsis thaliana; mutant plasmid built on the wild-type plasmid; also called W92F; source: E. coli BL21-DE3, purified (Ni-Sepharose, Source-15Q)
B2: UVR8 W144 single-Trp mutant (receptor, Arabidopsis thaliana, UniProt Q9FN03 1-440, looked up)
chain: B1 chain with F92W, W144F
notes: UVR8, Arabidopsis thaliana; mutant plasmid built on the wild-type plasmid; also called W144F; source: E. coli BL21-DE3, purified (Ni-Sepharose, Source-15Q)
B3: UVR8 W337F (receptor, Arabidopsis thaliana, UniProt Q9FN03 1-440, looked up)
chain: B1 chain with F92W, W337F
notes: UVR8, Arabidopsis thaliana; mutant plasmid built on the wild-type plasmid; source: E. coli BL21-DE3, purified (Ni-Sepharose, Source-15Q)
B4: UVR8 W300 single-Trp mutant (receptor, Arabidopsis thaliana, UniProt Q9FN03 1-440, looked up)
chain: B1 chain with F92W, W300F
notes: UVR8, Arabidopsis thaliana; mutant plasmid built on the wild-type plasmid; also called W300F; source: E. coli BL21-DE3, purified (Ni-Sepharose, Source-15Q)
B5: UVR8 W94F (receptor, Arabidopsis thaliana, UniProt Q9FN03 1-440, looked up)
chain: B1 chain with F92W, W94F
notes: as for B3
B6: UVR8 W198 single-Trp mutant (receptor, Arabidopsis thaliana, UniProt Q9FN03 1-440, looked up)
chain: B1 chain with F92W, W198F
notes: UVR8, Arabidopsis thaliana; mutant plasmid built on the wild-type plasmid; also called W198F; source: E. coli BL21-DE3, purified (Ni-Sepharose, Source-15Q)
B7: UVR8 W196 single-Trp mutant (receptor, Arabidopsis thaliana, UniProt Q9FN03 1-440, looked up)
chain: B1 chain with F92W, W196F
notes: UVR8, Arabidopsis thaliana; mutant plasmid built on the wild-type plasmid; also called W196F; source: E. coli BL21-DE3, purified (Ni-Sepharose, Source-15Q)

Residue numbers refer to the chain shown, from its start. Names may count otherwise.

This data set deals with the molecule itself. Briefly: SEC; dimer/monomer state of the purified protein before UV irradiation; 150 mM NaCl, 25 mM Tris-HCl, pH 8.0.
On to B1, for which the binding result was “binds”.
With B2, the binding result is listed as “binds”.
Regarding B3, the binding result is “binds”.
Next, B4: “binds”; B5: “binds”; B6: “binds”.
For B7, the binding result is listed as “binds”.
